Reference: a protein production outcome set (Wang et al. 2014)

assay: label from the status in PepcDB records

| Sequence | protein production |
| --- | --- |
| MKTKQTDELLAKDEQYVWHGMRPFSPNSTMVGAKAEGCWVEDIQGKRYLDGMSGLWCVNSGYGRKELAEAAYKQLQTLSYFPMSQSHEPAIKLAEKLNEWLGGEYVIFFSNSGSEANETAFKIARQYYAQKGEPHRYKFMSRYRGYHGNTMATMAATGQAQRRYQYEPFASGFLHVTPPDCYRMPGIERENIYDVECVKEVDRVMTWELSETIAAFIMEPIITGGGILMPPQDYMKAVHETCQKHGALLISDEVICGFGRTGKAFGFMNYDVKPDIITMAKGITSAYLPLSATAVKREIYEAFKGKGEYEFFRHINTFGGNPAACALALKNLEIIENENLIERSAQMGSLLLEQLKEEIGEHPLVGDIRGKGLLVGIELVNDKETKEPIDNDKIASVVNACKEKGLIIGRNGMTTAGYNNILTLAPPLVISSEEIAFVIGTLKTAMERI | failed |
| MKTLDFRRAGAHIALVVLFAVCPVAFADENDEVAKLYQQGNLDKALEQANAYLALKPKDPQMRFHKGLILTEQQKIPDAIKVFSSLSEDYPNLPEPYNNLAVLYASQGLYEKARGALEAAIRTHPSYSIAHENLGDIYAKLASEAYGKALQLDQGNAAAQTKLAMIKDLFIGKSGAIKTASAATAPAPPASAAPRSPAATTPSPPRSAAPATPPASVHPAPGKAPQKSAEKKTEKAEKSAPGKIAAVETHSPEKKTDVPDESDEIIKTVNAWARAWSDKNVTAYFAFYAADFQTPRGVKRTTWEKTRRDRIIKPKAIQVEITHPKVTLINPARARVSFRQLYHSDAFKHDSSKTLEMVKTDGKWQIRQERSAK | failed |
| MKTLGNILWFIFGGFFGGLSWLFAGVIWCITIIGIPIGLQCFKLAGLSFWPFKKRVVYSDSGVSLVVNIIWLIISGLPLAIGHCISGLFLCLTIIGIPFGQQSFKLAKLALMPFGARVVSTNDFYFE | failed |
| MKTNSEELTVFVQVVESGSFSRAAEQLAMANSAVSRIVKRLEEKLGVNLLNRTTRQLSLTEEGAQYFRRAQRILQEMAAAETEMLAVHEIPQGVLSVDSAMPMVLHLLAPLAAKFNERYPHIRLSLVSSEGYINLIERKVDIALRAGELDDSGLRARHLFDSRFRVIASPEYLAKHGTPQSTEELAGHQCLGFTEPGSLNTWAVLDAQGNPYKISPHFTASSGEILRSLCLSGCGIVCLSDFLVDNDIAEGKLIPLLAEQTSDKTHPFNAVYYSDKAVNLRLRVFLDFLVEELGNNLCG | failed |
| MKTQITTRDLVLEFIHALNTENFPAAKKRLNENFTFNGPMGHREGSERYMNDMEKMKFKYVVHKMFEEGNDVCLIYDINMNGKTIAASGLYHLEKGEITSLHVYFDPRPLFEE | not failed |
| MKTREYYVAAAAGLIGGNVSSFVKWGTEIPFPPRTPDRPIPPLEMLDSLGINANQLTYVYSEHMVNYGSALIHQSFSIFFAIFYCLTALRYPRVAVWQGFGFGMLVTLAFHGVLLPMFHWAPPLWELPPAEWASETFGHLLWIWVIEVIRRDLQQRWSPGPG | failed |
| MKTVILIGALGKMGQAALTGLSKHKVITAGRSGNVDHLVDITNENSIRALYEKVGHFDAVVNTVGFCEYATFAEMTEAQWMTTVMSKMMGQINLVRIGQEYIADKGSFTLISGILNVKPIPCAIADATTSGAIDTFVKCVAYEMQRGTRINVVNPTVLTEAWDVYGDMMPGFEPVPSTLVGKAFERSVDGFINGEVLFVDALEHHHHHH | not failed |
| MKTVLLTGFDPFGGESINPAWEVAKSLHEKTIGEYKIISKQVPTVFHKSISVLKEYIEELAPEFIICIGQAGGRPDITIERVAINIDDARIADNEGNQPVDVPVVEEGPAAYWSTLPMKAIVKKLQEEGIPASVSQTAGTFVCNHLFYGLMHELEKHDTKMKGGFIHIPFLPEQASNYPGQPSMSLSTIRKGIELAVEVTTTVEVDIVEVGGTTH | not failed |
| MKTVPAMLGTPRLFREFFILHLGLWSILCEKATKRNDEECEVQLNIKRNSKHSAWTGELFKIECPVKYCVHRPNVTWCKHNGTIWVPLEVGPQLYTSWEENRSVPVFVLHFKPIHLSDNGSYSCSTNFNSQVINSHSVTIHVRERTQNSSEHPLITVSDIPDATNASGPSTMEERPGRTWLLYTLLPLGALLLLLACVCLLCFLKRIQGKEKKPSDLAGRDTNLVDIPASSRTNHQALPSGTGIYDNDPWSSMQDESELTISLQSERNNQGIVYASLNHCVIGRNPRQENNMQEAPTEYASICVRS | not failed |
| MKTYSVIAVASLLATNLLTFPSSSLAEIENKTRNSIEAVSHMQSNEKSELQKQLEAAKEREMKLEKREEILKQQEELFIKIDDLKQKKEELLEQAGEHNVQIEEVYQELNELKKQQEELEEKNPLQVKSNDQEKKTNELKSQEELKEKDGVEVKENNGQEEKVHEEFEEQKKKEELKKQQDELRKQQEELKKQQLELEQRIKQELERKQQEEQAKQELELKQKEEQAKRELELKQKEEQVKQELELKQKEEQVKQELELKQKEEQVKQELELKQKEEQEKQELELKQKEEQEKQELELKQKEEQKKQELELKQKEEQEKGERELKQAVSSIQAAPQSFPDVPGWAQESVYYLVHKKVISGMPDGTFSPSKVLSRAEAATIMAKILELEVSEGEKPTFTDSQDHWATPYIAAVEKAGVIKGEGNGKFNPNGQMTRAAMATMLVQAYQLEKKVHEELPTLFPDVKDHWGEKFINILVGMGISSGVDGGRWQPDRSITRAEAAQLVAVTDKSKDNELKMKKVSISKKFFTYNGPSLSSGISKEYGPREVTVYEERDGGWIRIHTDTGFKWVCLVEKKVNMNKNFLTYNEASLSSGISGEYAPQIVTVIEEREGNWIKVYTDLGYKWVCLIDKKVQIDRDFTTYDAPFRSANILDYYGPQAVTVVEERGTWLRIRTYAGYQWLDTKKEAKYLSKVFFAYDSPSFVSRVSGKYAPQTVEVYGEREGGWIQIQTSNGLKWVNEGNINRSQVILNVPSLYQFPELHNGCEVVSLQMLVEHQIGRSLNKVAFAFEMPFDQAKLKNYKTSSQIWGDPDVGFVGDVTGNTPGYSINPEPLKRLLDKYSRGTNLTGNDLSVLEDYVRNGKPVVTWVTVALNNPRAVTTWKTPGGKIIYARMNTHAVVLTGVDDNYVYYNDPFYGTKNVKVSKSRFASIYNQMGKKALSVD | failed |
| MKTYTSVIFWMRTIACLSIVLIHSITTTFSKMDFLGHGTAIRVFQLMLMFSTPLFVFISEFLLAKNYQVKTKPGFFKNKLIYLGIPYIIINIGIALFYFESKTFDQFMTHLGDTMFHGGAVTYFIVIIFQFYILHILFAKYLIKWKPVPVIIGAVIFATIYWAFRQYAPQSEHPILGLFWEREGWMLFLGWISYFLLGFYTGIYYETFMKKIKKYTWPIIIGAIIATSILVDNYLFGISTWVESKRFDIPFYVKMVILVFFLFASYVKYVPKFILFISNYSFCIYLIHYFFVHELGLLRAASSLRNIAFNFIITLTVSICLAYIFNLSKYGKFIVGGIGHIKYDKVYESYKHGKMD | failed |
| MKVAILGAGCYRTHAASGITNFSRASQVAKEAGIPEIAMTHSTITMGAELLHLIPEITEVVVSDPCFAEEPGMVVLDQFDYKAVMEAHLAGDAEKVMPEIREAVKAKAKETPKPPKGCIHFVHPETVGLKVTASDVEAVKDADIVITWLPKGGSQPAIIEKFASEIKKGAIVTHACTIPTPKFAKIFKDLGRDDLNIIAYHPGAVPEMKGQAFLSEGLADAEKVEEFYCMAKTARGEAFKMPANLISPVCDMGSAVTAPVYAAILAYRDAVTQILGAPADFAQMMADEAISQILDLMRNEGIKNMEDKLNPKALTGTADSMCFGPLADILPASLKVLEKHANENKCECGCSIKP | failed |
| MKVALGGTFEPLHEGHKKLIDVAIKLGGRDITIGVTSDRMARARIRSVLPFAIRAENVKRYVMRKYGFEPEIVKITNPYGKTLDVDFEYLVVSPETYEMALKINQKREELGKRKITIVKVDWMMAEDGKPISSTRIKRGEIDRYGG | failed |
| MKVEKGDVIRLHYTGKVKETGEIFDTTYEDVAKEARIYNPNGIYGPVPIAVGAGHVLPGLDKRLIGLEVKKKYVIEVPPEEGFGLRDPGKIKIIPLGKFRKSGIIPYPGLEIEVETENGRKMRGRVLTVSGGRVRVDFNHPLAGKTLVYEVEVVEKIEDPIEKIKALIELRLPMIDKDKVIIEISEKDVKLNFKDVDIDPKTLILGEILLESDLKFIGYEKVEFEPTIEELLKPKSAEEQESPNEEQQEESESKAEES | failed |
| MKVFEFEVGKGFLLRLDYGKDLVRQIEEFLEEKGIHAAHISAIGAVRSAVIGYYDQEKKEYVKKELMEPLEILSLSGNVSMKDSKPFCHIHVLLGKDGEVYGGHLFSAEVFACEVFVLPLSGEAPERAFDEQTGLFLWLEHHHHHH | not failed |
| MKVGIIGLGFRLGYLGYVFKAIDSSFDIVGYVDPDPAGLPGLTEKGISAGKAYGSPEELLASEKLDLLMIGSPNHMHLGHIRLGLQAGLKVFCEKPIVTTIAESIELAHLMAKFGHERLMVGLVLRYSPLYKDLRAIQAEGKLGQIVSIEASEHIEPYHGAFFMRDWRRYERYSGSFMLEKCCHDLDLYNGVVGARPERVASFGGRKSFIPANDPAREGINDLELFHRKPSGWMGSDKVFDSDADIIDYQVAIVEYENGVGMNFHTNLNVPDQFRRFAIMGSRGMAEGDFVRGYLDVHEQLTGNKIVENKYAATELSQHYGADEQMASDLLESVRTGLELPVSTLNALEAGILALAMDEARMKKTVVDLRPIWDRFDEALHARAA | failed |
| MKVGVIGASEMAGSAIYKLAKQNLEIDVTGIVRHESKAKKVLGDDAKLIVGDIFALSDNILDKFDVIIDAFGTDPKNAEEHVILAKKLINLVRKNKIRVIFILGAGSLHTGDDEHLVVDDIAQMDNADTWINTPRQQLKELEYLNSIDDVDWLGISPALQFEAGPATEYIEGTDELLYNKDGDSKLTSGTMATVVIKETVDSVHHQERITIANALEHHHHHH | not failed |
| MKVIETNFTDAKLLEPRLFGDDRGFFTESYNKKVLETLGVTHSFVQDNVSYSAEAGTIRGLHFQKNPKAQTKLIQVMQGAIYDVIVDLRKDSPTFKQWRGYILSADNHRQLLVPKGFAHGFCTLVPHTIVMYKVDEYYSADHDSGVLWNDKELAIPWPVTSPILSDKDRILPLLQECEDSF | not failed |
| MKVIIIGGETTAYYLARSMLSRKYGVVIINKDRELCEEFAKKLKATIIHGDGSHKEILRDAEVSKNDVVVILTPRDEVNLFIAQLVMKDFGVKRVVSLVNDPGNMEIFKKMGITTVLNLTTLITNTVEALIFPDEFSSIIPLEQGIE | failed |
| MKVLAVAYDPRDFGELATGVRDSLGDAELVFLAVHKAAEEPGKASGYSEKVFVSRTSSPESIALLLEKLISEEKPDIIVGEAYKNLRDALSRVAGKLDLPMATDVSSFSVENGKVKFRKGFLSEKAVMEAEIPKPAVILFLTRFTKPKEISPESQARIVELEPPQGETKVVETRPKEMGGANLEEAEIIVGVGRGFKSKEDLKLAFELAELLNAQIGCTRPIAADLKWLSEDHWIGISGKRVAPKLYLAIGISGSPQHMSGVQNAKIIVAVNKDKNAPIFKQADYGVVADLYQFIPVLIKKLRERKSN | failed |
| MKVLDSRDFAKVKAIAIERASYRNIGALAVYIGSMTGMRISEVLALTWPDIDTKLCVIHVTRSWDHLYGTGFKPTKTDSSVRDIEISPSVIELLNKIHQEQAASYLRTGYRDEDQMIMRDPRHNVITDSACNKALHVIQNKAGIPEDKQITFHGLRHSHVSYLISKGVDIYYISKRLGHSDVTITMKVYGHLLDSQRKQEAHKAVLFMDQILEHHHHHH | failed |
| MKVLESAPSRYDRGIRIITLGKLDEAYDRLTSRIKPGQRVLDVGCGTGALTLRAALRGARVKAIDINPQMLEIARKRVEEAGVTGMVELCEMGVAELNTEASEGYDAVMAGLCFSELTEDELSYALREIKRVLKPGALLLIADEAVPESPVKRVLSWLIRAPLAVIAYLLIQTTTRAVKNLPEKLGEEGFLIESVRRSFMEDFVEIVARKPGR | failed |
| MKVLFLTANEFEDVELIYPYHRLKEEGHEVYIASFERGTITGKHGYSVKVDLTFDKVNPEEFDALVLPGGRAPERVRLNEKAVSIARKMFSEGKPVASICHGPQILISAGVLRGRKGTSYPGIKDDMINAGVEWVDAEVVVDGNWVSSRVPADLYAWMREFVKLLK | not failed |
